These results are taken from patent publication US20220372138A1 (IOMX THERAPEUTICS, published 2022).

For orientation: EC50 means the midpoint of the concentration-response curve. Broadly, the EC50 (read off the curve) is the concentration at which the effect is half-maximal. Low readings indicate a more potent agent, high ones a less potent agent.

The target in assay [1] is T1, extracellular domain (ECD) of human IGSF11 (VSIG3), recombinant (human, UniProt Q5DX21 23-241).
T1 construct: biotinylated where captured on streptavidin; tags of the reagent not always stated; also called IGSF11 (ECD domain); ECD-IGSF11
T1 sequence: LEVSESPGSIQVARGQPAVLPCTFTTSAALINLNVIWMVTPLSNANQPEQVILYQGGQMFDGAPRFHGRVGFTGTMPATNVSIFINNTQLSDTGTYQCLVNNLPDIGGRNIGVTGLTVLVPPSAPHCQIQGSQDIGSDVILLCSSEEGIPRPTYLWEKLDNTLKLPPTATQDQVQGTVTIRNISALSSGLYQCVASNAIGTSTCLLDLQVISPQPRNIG
Nature of the assay: BLI. A general note: Biolayer interferometry detects binding as a change in optical thickness at a sensor tip.

In assay [2] the target is T1, extracellular domain (ECD) of human …. Nature of the assay: SPR.
Assay [3] concerns the target T2, full-length ECD of human IGSF11 fused to murine Fc (human, UniProt Q5DX21 23-241).
T2 construct: also called Fc-fusion IGSF11 ECD; not shown: murine Fc
T2 sequence: T1 sequence
Nature of the assay: IgG ELISA. A general note: ELISA stands for enzyme-linked immunosorbent assay.

Assay [4] has as its target T3, IgC2 domain of human IGSF11 fused to murine IgG2a Fc (human, UniProt Q5DX21 137-241).
T3 construct: not shown: murine IgG2a Fc-region
T3 sequence: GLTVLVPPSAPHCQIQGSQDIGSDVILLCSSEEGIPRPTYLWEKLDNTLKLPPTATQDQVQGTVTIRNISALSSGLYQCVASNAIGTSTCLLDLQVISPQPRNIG
Briefly: IgG ELISA.

Assay [5] addresses T4, human IGSF11 (VSIG3) expressed on cells (human, UniProt Q5DX21 23-431).
T4 sequence: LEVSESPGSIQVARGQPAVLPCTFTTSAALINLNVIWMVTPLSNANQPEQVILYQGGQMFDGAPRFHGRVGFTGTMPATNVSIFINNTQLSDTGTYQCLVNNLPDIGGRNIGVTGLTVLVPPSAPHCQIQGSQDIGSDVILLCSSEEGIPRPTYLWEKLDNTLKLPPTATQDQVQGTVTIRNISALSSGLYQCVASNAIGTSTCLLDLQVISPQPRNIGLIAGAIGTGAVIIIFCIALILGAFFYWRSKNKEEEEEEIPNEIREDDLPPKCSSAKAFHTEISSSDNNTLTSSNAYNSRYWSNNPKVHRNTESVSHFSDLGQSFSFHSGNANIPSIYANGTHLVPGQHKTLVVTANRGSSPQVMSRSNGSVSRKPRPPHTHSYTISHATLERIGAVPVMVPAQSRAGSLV
Nature of the assay: IgG1 FACS HEK-OE.

Assay [6] deals with T4, human IGSF11 (VSIG3) expressed on cells. Nature of the assay: IgG1 FACS DMS 273.
Assay [7] deals with T5, human IGSF11 (VSIG3) ECD, His-tagged (human, UniProt Q5DX21 23-241).
T5 construct: in part bought (SinoBiological 13094-H08H); also called HIS-IGSF11; IGSF11-HIS; not shown: His tag
T5 sequence: T1 sequence
Briefly: IgG1 ELISA EC50 <0.02 nM.

For assay [8], the target named is T1, extracellular domain (ECD) of human …. Briefly: BLI apparent affinity, IgG on AHC sensor, IGSF11 ECD 100 nM.
Excerpt: Briefly, various APBs were loaded on an optical biosensor via a commercially available Capture System (AHC sensors, ForteBio).
In assay [9] the target is T4, human IGSF11 (VSIG3) expressed on cells. Nature of the assay: FACS, DMS 273 cells with scrambled control siRNA (SC). Background: Flow cytometry measures light scatter and fluorescence of single cells or particles in a stream.
Assay [10] shares this target. Nature of the assay: FACS, M579-A2-luc cells with scrambled control siRNA (SC).
Assay [11] shares this target. Briefly: FACS, DMS 273 cells with IGSF11 siRNA (KD, knock-down control).
The target is the same in assay [12]. Nature of the assay: FACS, M579-A2-luc cells with IGSF11 siRNA (KD, knock-down control).
Assay [13] deals with T2, full-length ECD of human IGSF11 fused …. Briefly: ELISA: Fc-fusion IGSF11 ECD coated, IgG dilution series, anti-human IgG-HRP.
Description: (§1) Binding of IgG antibodies to each of the full-length ECD of IGSF11, to the IgV domain of IGSF11 and to the IgC2 domain of IGSF11, was tested in the ELISA assay as follows: briefly, recombinant domains of Fc-fusion IGSF11 proteins were coated at 2 ug/mL on a 384-well Maxisorp plate. The surface was blocked with 2% (w/v) skim milk powder in PBST. […] After removing all unbound antibodies by 3 wash cycles with PBST, bound IgG ABPs were detected with a goat anti-human IgG antibody conjugated with horseradish peroxidase. After three wash cycles with PBST the ELISA was developed with TMB substrate.
In assay [14] the target is T5, human IGSF11 (VSIG3) ECD, His-tagged. Briefly: ELISA: IGSF11-HIS coated, IgG1 dilution series, anti-human antibody-HRP, TMB.
Assay [15] concerns the target T3, IgC2 domain of human IGSF11 fused to …. Nature of the assay: ELISA: IgC2 domain-mFc fusion coated, IgG dilution series, anti-human IgG-HRP.
Description: as §1
Assay [16] has as its target T6, IgV domain of human IGSF11 fused to murine IgG2a Fc (human, UniProt Q5DX21 23-143).
T6 construct: not shown: murine IgG2a Fc-region
T6 sequence: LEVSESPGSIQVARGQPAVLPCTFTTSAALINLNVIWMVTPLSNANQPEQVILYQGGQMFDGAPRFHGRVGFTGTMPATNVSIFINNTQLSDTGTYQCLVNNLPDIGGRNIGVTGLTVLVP
Nature of the assay: BLI: IgV domain-mFc captured on the sensor, IgG1 in solution, concentrations not given [Cont.) D].

For assay [17], the target named is T5, human IGSF11 (VSIG3) ECD, His-tagged. Nature of the assay: blocking ELISA: VSIR-Fc immobilised, IgG dilution series pre-incubated with 200 nM IGSF11 ECD-His, bound IGSF11 detected with anti-His-HRP.
Description: All binding steps were for 1 hour at room temperature, and all washing steps were three times washing with PBS/Tween (0.05%).
Assay [18] concerns the target T1, extracellular domain (ECD) of human …. Briefly: SPR. The source holds these as a separate data set.
Assay [19] has as its target T5, human IGSF11 (VSIG3) ECD, His-tagged. Briefly: blocking ELISA: VSIR-Fc immobilised, IgG dilution series pre-incubated with 200 nM IGSF11 ECD-His, bound IGSF11 detected with anti-His-HRP. The source holds these as a separate data set.
Assay [20] deals with T6, IgV domain of human IGSF11 fused to …. Nature of the assay: IgG ELISA.
Description: as §1
The target of assay [21] is T5, human IGSF11 (VSIG3) ECD, His-tagged. Briefly: IgG1 ELISA EC50 0.02-0.05 nM.
In assay [22] the target is T2, full-length ECD of human IGSF11 fused …. Nature of the assay: ELISA: Fc-fusion IGSF11 ECD coated, IgG dilution series, anti-human IgG-HRP. This is another data set of the same source.
Description: as §1
Assay [23] addresses T3, IgC2 domain of human IGSF11 fused to …. Briefly: BLI: IgC2 domain-mFc captured on the sensor, IgG1 in solution, concentrations not given [Cont.) D].
For assay [24], the target named is T4, human IGSF11 (VSIG3) expressed on cells. Nature of the assay: IgG FACS Colo741.
Excerpt: (§2) Unbound antibodies were removed by washing the cells three time with FACS buffer. Bound antibodies were detected with a mouse anti-human IgG antibody conjugated with AlexaFluor647.
In assay [25] the target is T7, murine IGSF11 expressed on cells (mouse, UniProt P0C673 23-428).
T7 construct: MC38-IGSF11, CT26-IGSF11, MC38-wt (naturally expresses murine IGSF11)
T7 sequence: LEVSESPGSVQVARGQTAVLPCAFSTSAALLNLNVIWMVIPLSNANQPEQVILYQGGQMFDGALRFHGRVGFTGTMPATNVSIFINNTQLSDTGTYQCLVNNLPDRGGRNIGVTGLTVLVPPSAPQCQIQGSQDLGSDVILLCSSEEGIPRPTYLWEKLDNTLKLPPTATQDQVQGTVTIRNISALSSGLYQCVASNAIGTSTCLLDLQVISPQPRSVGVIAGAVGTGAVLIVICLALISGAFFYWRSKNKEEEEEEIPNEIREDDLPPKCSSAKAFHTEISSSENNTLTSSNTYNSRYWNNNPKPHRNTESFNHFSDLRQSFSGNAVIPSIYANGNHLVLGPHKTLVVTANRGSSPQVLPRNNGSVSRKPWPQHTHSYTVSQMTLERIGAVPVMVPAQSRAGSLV
Briefly: IgG FACS MC38-wt.
Excerpt: as §2

Substitutions are numbered along the chain they refer to. Read-outs that look alike come from different tables or passages of the source. Where only a bound is given, the exact number is not on record here.

B1: A-006 (IgG1 format) (antibody, V domains shown)
VH: EVQLVESGGGLIQPGGSLRLSCAASGFTVSSNYMSWVRQAPGKGLEWVSVIYSGGSTYYADSVKGRFTISRDNSKNTLYLQMNSLRAEDTAVYYCARGNPYYYGDLQVNFDYWGQGTLVTVSS
VL: QAVVTQEPSLTVSPGGTVTLTCASSTGAVTSGYYPNWFQQKPGQAPRPLIYSTSNKHSWTPARFSGSLLGGKAALTLSGVQPDDEAEYYCLLYYGGDWVFGGGTKLTVL
notes: human IgG1 format; also called A-006-like ABP
On to B1, for which the Kd was 1 to 10 nM in assay [1], 250 to 500 nM in assay [2] and less than 15 nM in assay [8]. Besides, the EC50 in assay [3] is less than 1 nM; in [4] it was less than 1 nM; in assay [5], 10 to 50 nM; in [6] it was greater than 50 nM; in assay [7], less than 0.02 nM. For the same molecule, the “% binding (FACS heat-map)” value in [9] was found to be 81.1%; in assay [10] it was 75.3%; in [11], 5.72%; in assay [12] it was 2.59%. For the same molecule, the “EC50 (read off the curve)” value in assay [13] is roughly 0.5 nM; in assay [14], roughly 0.01 nM; in assay [15], roughly 0.4 nM. Further, in assay [16], the binding result is “no binding”. In addition, the “IC50 (read off the curve)” value in assay [17] is roughly 4 nM.

B2: B-001 (chain-swapped IgG1) (antibody, V domains shown)
VH: B1 VH with V5L, A24V
VL: B1 VL with G32A, P48A, D83E, E87D, D97A
notes: human IgG1 format; also called B1
With B2, the Kd in assay [18] is 250 to 500 nM. Also, the EC50 in assay [5] fell in the range of 10 to 50 nM. Also, in assay [19], the “IC50 (read off the curve)” value was roughly 2 nM.

B3: A-024 (IgG1 format) (antibody, V domains shown)
VH: QMQLVQSGAEVKKPGSSVKVSCKASGGTFSSYAISWVRQAPGQGLEWMGWISAYNGNTNYAQKLQGRVTMTTDTSTSTAYMELRSLRSDDTAVYYCASLGSYGYTGAFDIWGQGTMATVSS
VL: QSALTQPASVSGSPGQSITISCTGTSSDVGGYNYVSWYQQHPGKAPKLMIYEVSNRPSGVSNRFSGSKSGNTASLTISGLQAEDEADYYCSSYTSSSTLVVFGGGTKLTVL
notes: also called A-024-like ABP
Turning to B3, the Kd in [2] was greater than 500 nM. In addition, the EC50 was less than 1 nM in [3], less than 1 nM in assay [20], less than 10 nM in assay [6] and 0.02 to 0.05 nM in assay [21]. Further, the “EC50 (read off the curve)” value in assay [22] is roughly 0.4 nM. The binding result in [23] is given as “no binding”.

B4: D-223 (IgG format) (antibody, V domains shown)
VH: EVQLVESGGGLVKPGGSLRLSCAASGFTFSHAWISWVRQAPGKGLEWVGQIKGGPGSGGTSYAEPVKGRFTISRDDSKNTLYLQMNSLKTEDTAVYYCARLGIYSGFDYWGQGTLVTVSS
VL: SYELTQPPSVSVSPGQTASITCSGDKLGDKYASWYQQKPGQSPVLVIYQDSKRPSGIPERFSGSNSGNTATLTISGTQAEDEADYYCHSYLHLPPTVVFGGGTKLTVL
Regarding B4, the concentration for a half-maximal effect (EC50) in assay [24] and in [25] was less than 0.5 nM in each case.

B5: D-116 (IgG format) (antibody, V domains shown)
VH: EVQLLESGGGLVQPGGSLRLSCAASGFTFKHSAISWVRQAPGKGLEWVSAISYGGGSQYYADSVKGRFTISRDNSKNTLYLQMNSLRAEDTAVYYCARDSRDAYGVAFDLWGQGTMVTVSS
VL: ASVLTQPPSVSAAPGQKVTISCSGSSSNIGNNYVSWYQQLPGTAPKLLIYDNNKRPSGIPDRFSGSKSGTSATLGITGLQAEDEADYYCQSYGHRSFVFGGGTKLTVL
As for B5, the half-maximal effective concentration (EC50) is less than 0.5 nM in [24] and less than 0.1 nM in assay [25].
